We go through six compounds from patent publication US8715736B2, “Nanoparticle formulations for skin delivery” (Florida Agricultural and Mechanical University, priority 2009, dated 2014).

In brackets after ≈: the same amount, converted by molar mass. Where no end group is shown, it is not given here.

Series [1] in a line: Iso-electric point of CPP peptides (Table 1). It is filed as physicochemical. The text has this:
Celecoxib (CXB) was provided by Pfizer (Skokie, Ill.). The triglyceride Miglyol 812 was obtained from Sasol Germany GmbH (Witten, Germany) and Compritol 888 ATO was provided by Gattefosse (Saint Priest, France). The phospholipids 1-palmitoyl-2-oleoyl-phosphatidylcholine (POPC), 1,2-dioleoyl-sn-glycero-3-phosphoethanolamine (DOPE) and 1,2-di-(9Z-octadecenoyl)-sn-glycero-3-[(N-(5-amino-1-carboxypentyl)iminodiacetic acid)succinyl] (nickel salt) (DOGS-NTA-Ni) were purchased from Avanti Polar Lipids (USA). Cholesterol, Tween 80, pH 7.4 phosphate buffer saline (PBS), paraformaldehyde, tetrahydrofuran (THF), trifluoro acetic acid (TFA), and dialysis membranes (molecular weight cut off 12,400 daltons and flat width of 23 mm) were procured from Sigma-Aldrich Chemicals (St. Louis, USA). Polyoxyethylene-20 oleyl ether or Volpo-20 (Oleth-20) was a kind gift from Croda Inc (New Jersey, USA). Vivaspin centrifuge filters (molecular weight cut off 10,000 Daltons) was procured from Sartorius Ltd, (Stonehouse, UK). All other chemicals used herein were of analytical grade. All of the CPP peptides were synthesized by GenScript Corporation (NJ, USA). Sce Table 1 below for details of the composition, molecular weight and iso-electric points of the CPPs. Fluorescent Isothiocyanate (FITC), DID-oil and DIO fluorescent dyes were procured from Invitrogen (USA).

Series [2] is described as follows: Solubility of CXB. It counts as physicochemical.

In series [1], “YKALRISRKLAKHHHHHH (syntheticall generated peptide) [reference compound]” registered an Iso-electric point of 11.6.
For the compound “RRRRRRRRHHHHHH (synthetically generated peptide) [R8]”, in series [1], the Iso-electric point amounted to 13.2.
As to `Cc1ccc(-c2cc(C(F)(F)F)nn2-c2ccc(S(N)(=O)=O)cc2)cc1` [CXB, Celecoxib], in series [2] (0.1% w/v Volpo 20 in pH 7.4 PBS, aqueous with cosolvent or surfactant or cyclodextrin, in 0.1% Volpo 20 (receptor fluid, pH 7.4 PBS), read-out: saturation solubility), the solubility came to 30 µg/mL (≈ 78.7 µM). In addition, the solubility in water entry in series [2] (water) is “insoluble in water”.
Consider YGRKKRRQRRRHHHHHH [TAT], for which the Iso-electric point in series [1] was found to be 12.7.
For “RRRRRRRRRRRRRRRHHHHHH (synthetically generated peptide) [R15]”, the Iso-electric point in series [1] came out at 13.5.
For the compound “RRRRRRRRRRRHHHHHH (synthetically generated peptide) [R11]”, in series [1], the Iso-electric point is listed as 13.4.
